The text below walks through data of publication PMC4532469.

In experiment [1] the target is LTBP-2 C(H) F2, sub-fragment of human LTBP-2C(H) (six tandem EGF-like motifs, EGFs 9-14) (human). The experiment is described as follows: ELISA; solid phase binding assay, saturation curve: LTBP-2 or fragment coated on wells, increasing FGF-2 (0–30 ng/ml; 0–1.8 or 0–1.5 nM), 3 h at 37°C; BSA signal subtracted, bound FGF-2 from a standard ELISA curve; Kd by non-linear regression (GraphPad Prism) for a single binding site (Fig 3, Fig 4B, D, E). Background: In an ELISA, binding on a coated surface is turned into a signal by an enzyme label.

The target of experiment [2] is recombinant human LTBP-2 central fragment LTBP-2C(H) (human). The description is as above.

Turning to “recombinant human fibroblast growth factor-2 (FGF-2) (from UniProt P09038 143-288) (ligand)”, the Kd amounted to 1.03 nM in experiment [1] and 1.02 nM in experiment [2].

The term Kd denotes the constant that tells how readily two partners part at equilibrium.
